# Measurements reported in US20090304651A1 (published 2009).
# Where a chain is given by its changes, count along the chain named. Names and notes keep the numbering of the source.
# B1: wild type IGF2R domain 11 (amino acids 1511-1650) with C-terminal His6 tag, from Pichia pastoris (receptor)
# chain: NEHDDCQVTNPSTGHLFDLSSLSGRAGFTAAYSEKGLVYMSICGENENCPPGVGACFGQTRISVGKANKRLRYVDQVLQLVYKDGSPCPSKSGLSYKSVISFVCRPEAGPTNRPMLISLDKQTCTLFFSWHTPLACEQATHHHHHH
# notes: also called WT; wild type domain 11
# B2: IGF2R domain 11 E1544A (amino acids 1511-1650, C-terminal His6 tag, from Pichia pastoris) (receptor)
# chain: B1 chain with E34A
# B3: IGF2R domain 11 E1544K (amino acids 1511-1650, C-terminal His6 tag, from Pichia pastoris) (receptor)
# chain: B1 chain with E34K
# notes: also called enhanced mutant
# Target: T1, recombinant human IGF-II (Insulin-like Growth Factor II) (human, UniProt P01344 25-91, biotinylated (Biotinyl-IGF-II, GroPep) where immobilised in SPR, site not stated; not biotinylated in ITC and as SPR analyte)
# T1 construct: also called IGF2; IGF-2
# T1 sequence (P01344 25-91 limits assumed): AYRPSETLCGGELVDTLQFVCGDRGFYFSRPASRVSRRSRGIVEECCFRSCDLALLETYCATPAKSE
# Experiment: SPR, IGF-II immobilised, kinetic fit
# Outline: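 Domain 11 proteins made in Pichia pastoris and purified by His-tag were passed in duplicate, in random order, over ~50 RU of biotinylated IGF-II bound to a streptavidin Sensor Chip SA on a BIAcore 3000 (25° C, HBS-EP, 40 μl/min, 2 min injections, 100 s dissociation, 2 M MgCl₂ regeneration), at 4096–8 nM, or 16384–32 nM for three constructs. Kinetic rate constants and Kd were derived by global sensorgram fitting in BIAevaluation 4.0.1, with blank-flow-cell and buffer-injection signals subtracted first.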
Binder,Kd [nM],koff [s⁻¹],kon [M⁻¹ s⁻¹]
B1,119,0.0787,662000
B2,45.5,0.0558,1.23e+06
B3,20.5,0.0406,2.02e+06

# Target: T1, recombinant human IGF-II (Insulin-like …)
# Experiment: SPR, IGF-II immobilised, steady state
# Description: (§1) Duplicate analyte injections were performed at concentrations of 4096, 2048, 1024, 512, 256, 128, 64, 32, 16 and 8 nM.
# (§2) Kinetic analysis by Surface Plasmon Resonance (SPR) was conducted on a BIAcore 3000 biosensor (BIAcore, Uppsala, Sweden) at 25° C. in HBS-EP (10 mM HEPES, pH 7.4, 150 mM NaCl, 3 mM EDTA, 0.005% surfactant P20) at a flow rate of 40 μl/min. […] Kinetic experiments consisted of a two minute injection of analyte followed by a 100 s dissociation phase in running buffer, after which the binding surface was regenerated with a 2 minute injection of 2 M MgCl₂. A blank flow cell was used for in-line reference subtraction of changes due to differences in refractive index of running buffer versus sample and a buffer-only injection was used to subtract instrument noise and drift. Injections were performed in duplicate for each concentration and in a randomised order. Kinetic parameters were determined by global fitting of sensorgrams to a two-state (conformational change) binding model using BIAevaluation software version 4.0.1. In all cases the minor component made an insignificant contribution to the overall affinity and as such only the kinetic parameters of the major binding component were used. For each interaction the dissociation affinity constant (KD) was also calculated by fitting of the response of each concentration at equilibrium to a steady-state affinity model using BIAevaluation.
row,Binder,Kd [nM]
1,B1,103
2,B2,37
3,B3,16.9

# Target: T1, recombinant human IGF-II (Insulin-like …)
# Experiment: SPR, steady-state KD relative to wild type
# Description: as §1, §2
row,Binder,Relative Affinity
1,B1,1 fold (wild type = 1.00)
2,B2,2.79 fold (wild type = 1.00)
3,B3,6.12 fold (wild type = 1.00)

# Target: T1, recombinant human IGF-II (Insulin-like …)
# Experiment: ITC, IGF-II titrated into domain 11
# Description: Calorimetric measurements were performed using a VP-ITC microcalorimeter (MicroCal). All solutions were thoroughly degassed before use by stirring under vacuum. […] The sample cell contained either wild type domain 11 (7 uM) or the E1544A mutant (8 μM), also in HBS-E buffer. To correct for the heat effects of dilution and mixing, reaction heats obtained from a control experiment, in which IGF2 was injected into HBS-E, were subtracted. Calorimetric data were analysed using MicroCal ORIGIN software (version 5.0) supplied with the instrument. Thermodynamic parameters were derived by fitting the binding isotherms to a single-site binding model. Values for dissociation affinity constants (KD) were determined from duplicate experiments.
# In order to validate the SPR sensorgram data, ITC was used to assess the binding affinity between domain 11 and IGF-II. The affinity of the E1544A mutant was also assessed by ITC in order to confirm whether use of a second technique agreed as to the apparent increase in affinity (FIG. 6 and Table 6). Titrations were performed using 17×15 μl injections of 40 μM IGF-II (after an initial 7.51 injection) into the reaction cell containing wild type domain 11 or the E1544A mutant. […] The two fold differences may be simply accounted for by the fidelity of both techniques.
row,Binder,Kd [nM]
1,B1,150
2,B2,81.4
3,B3,26.4

# Target: T1, recombinant human IGF-II (Insulin-like …)
# Experiment: SPR (Biacore)
row,Binder,Kd [nM]
1,B1,103
2,B2,37
3,B3,16.9

# Target: T1, recombinant human IGF-II (Insulin-like …)
# Experiment: SPR, IGF-II immobilised, kinetic fit
# Remark: another data set of the same source
# Description: as §1, §2
Binder,Kd [nM],koff [s⁻¹],kon [M⁻¹ s⁻¹]
B1,102,0.053,525000
B2,35.9,0.033,934000
B3,15.2,0.023,1.52e+06

# Target: T1, recombinant human IGF-II (Insulin-like …)
# Experiment: SPR, steady-state KD relative to wild type
# Remark: another data set of the same source
# Outline: (§3)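 Domain 11 proteins were secreted from Pichia pastoris, purified by His-tag and injected in duplicate over about 50 RU of biotinylated IGF-II captured on a streptavidin Sensor Chip SA in a BIAcore 3000 at 25° C, in HBS-EP at 40 μl/min with 2 min injections. Analyte concentrations spanned 4096–8 nM, or 16384–32 nM for three constructs, and blank-flow-cell and buffer-injection signals were subtracted. Kd was obtained in BIAevaluation by fitting the equilibrium response at each concentration to a steady-state affinity model.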
row,Binder,Relative Affinity
1,B1,1 fold (wild type = 1.00)
2,B2,2.79 fold (wild type = 1.00)
3,B3,6.12 fold (wild type = 1.00)

# Target: T1, recombinant human IGF-II (Insulin-like …)
# Experiment: SPR, IGF-II immobilised, steady state
# Remark: another data set of the same source
# Outline: as §3
row,Binder,Kd [nM]
1,B1,103
2,B2,37
3,B3,16.9
